In the supplement of paper PMC10567573:

B1: DUSP5 (parent)
chain: YSEYPECCVDVKPISQEKIESERA

Variants of: B1
Assay: protein stability index of a GFP-peptide fusion (GPS, HEK-293T) (PSI 1-6); higher = more stable
Conditions: c terminus: a fixed tail appended
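Further: lentivirally expressed fusions sorted by FACS into six bins by GFP to DsRed ratio, PSI derived from sequencing read proportions per bin multiplied by bin number.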

Row | Variant | protein stability index
1 | YSEYPECCVFVKPISQEKIESERA [D10F] | 2.47
2 | YSEYPECCVCVKPISQEKIESERA [D10C] | 2.69
3 | YSEYPECCVEVKPISQEKIESERA [D10E] | 4.66
4 | YSEYPECCVDVKPISHEKIESERA [Q16H] | 3.99
5 | YSEYPECCVDVKPISEEKIESERA [Q16E] | 4.33
6 | YSEYPECCVDVKPISNEKIESERA [Q16N] | 4.59
7 | YSEYPECCVDVKPISLEKIESERA [Q16L] | 4.19
8 | YSEYPECCVDVKPISMEKIESERA [Q16M] | 4.3
9 | YSEYPECCVDVKPISAEKIESERA [Q16A] | 3.74
10 | YSEYPECCVDVKPISTEKIESERA [Q16T] | 4.03
11 | YSEYPECCVDVKPISVEKIESERA [Q16V] | 3.41
12 | YSEYPECCVDVKPISIEKIESERA [Q16I] | 3.9
13 | YSEYPECCVDVKPISFEKIESERA [Q16F] | 3.58
14 | YSEYPECCVDVKPISPEKIESERA [Q16P] | 4.38
15 | YSEYPECCVDVKPISGEKIESERA [Q16G] | 4.06
16 | YSEYPECCVDVKPISKEKIESERA [Q16K] | 3.85
17 | YSEYPECCVDVKPISYEKIESERA [Q16Y] | 3.37
18 | YSEYPECCVDVKPISWEKIESERA [Q16W] | 2.83
19 | YSEYPECCVDVKPISDEKIESERA [Q16D] | 4.67
20 | YSEYPECCVDVKPISREKIESERA [Q16R] | 4.34
21 | YSEYPECCVDVKPISSEKIESERA [Q16S] | 3.85
22 | YSEYPECCVDVKPISQDKIESERA [E17D] | 3.75
23 | YSEYPECCVDVKPISQKKIESERA [E17K] | 3.21
24 | YSEYPECCVDVKPISQGKIESERA [E17G] | 3.86

Row | Variant | protein stability index
25 | YSEYPECCVDVKPISQCKIESERA [E17C] | 3.01
26 | YSEYPECCVDVKPISQYKIESERA [E17Y] | 3.1
27 | YSEYPECCVDVKPISQVKIESERA [E17V] | 2.86
28 | YSEYPECCVDVKPISQHKIESERA [E17H] | 3.82
29 | YSEYPECCVDVKPISQAKIESERA [E17A] | 4.41
30 | YSEYPECCVDVKPISQQKIESERA [E17Q] | 3.97
31 | YSEYPECCVDVKPISQMKIESERA [E17M] | 2.53
32 | YSEYPECCVDVKPISQPKIESERA [E17P] | 4.37
33 | YSEYPECCVDVKPISQWKIESERA [E17W] | 2.78
34 | YSEYPECCVDVKPISQSKIESERA [E17S] | 3.06
35 | YSEYPECCVDVKPISQFKIESERA [E17F] | 3.43
36 | YSEYPECCVDVKPISQRKIESERA [E17R] | 2.95
37 | YSEYPECCVDVKPISQNKIESERA [E17N] | 3.61
38 | YSEYPECCVDVKPISQIKIESERA [E17I] | 3.17
39 | YSEYPECCVDVKPISQTKIESERA [E17T] | 3.89
40 | YSEYPECCVDVKPISQEKQESERA [I19Q] | 4.95
41 | YSEYPECCVDVKPISQEKHESERA [I19H] | 3.01
42 | YSEYPECCVDVKPISQEKTESERA [I19T] | 4.55
43 | YSEYPECCVDVKPISQEKPESERA [I19P] | 4.02
44 | YSEYPECCVDVKPISQEKWESERA [I19W] | 4.24
45 | YSEYPECCVDVKPISQEKVESERA [I19V] | 3.31
46 | YSEYPECCVDVKPISQEKAESERA [I19A] | 4.65
47 | YSEYPECCVDVKPISQEKEESERA [I19E] | 4.69
48 | YSEYPECCVDVKPISQEKKESERA [I19K] | 4.9

Row | Variant | protein stability index
49 | YSEYPECCVDVKPISQEKFESERA [I19F] | 4.16
50 | YSEYPECCVDVKPISQEKGESERA [I19G] | 4.34
51 | YSEYPECCVDVKPISQEKMESERA [I19M] | 4.1
52 | YSEYPECCVDVKPISQEKNESERA [I19N] | 4.61
53 | YSEYPECCVDVKPISQEKYESERA [I19Y] | 3.1
54 | YSEYPECCVDVKDISQEKIESERA [P13D] | 4.47
55 | YSEYPECCVDVKIISQEKIESERA [P13I] | 3.69
56 | YSEYPECCVDVKAISQEKIESERA [P13A] | 4.56
57 | YSEYPECCVDVKLISQEKIESERA [P13L] | 3.22
58 | YSEYPECCVDVKHISQEKIESERA [P13H] | 4.03
59 | YSEYPECCVDVKTISQEKIESERA [P13T] | 4.18
60 | YSEYPECCVDVKWISQEKIESERA [P13W] | 3.17
61 | YSEYPECCVDVKMISQEKIESERA [P13M] | 3.5
62 | YSEYPECCVDVKGISQEKIESERA [P13G] | 4.03
63 | YSEYPECCVDVKNISQEKIESERA [P13N] | 3.96
64 | YSEYPECCVDVKSISQEKIESERA [P13S] | 3.33
65 | YSEYPECCVDVKVISQEKIESERA [P13V] | 2.85
66 | YSEYPECCVDVKCISQEKIESERA [P13C] | 4.88
67 | YSEYPECCVDVKEISQEKIESERA [P13E] | 4.19
68 | YSEYPECCVDVKFISQEKIESERA [P13F] | 3.85
69 | YSEYPECCVDVKYISQEKIESERA [P13Y] | 3.29
70 | YSEYPECCVDVKRISQEKIESERA [P13R] | 3.48
71 | YSEYPECCVDVKKISQEKIESERA [P13K] | 4.12
72 | YSEYPECCVDVKQISQEKIESERA [P13Q] | 4.14

Row | Variant | protein stability index
73 | YSEYPECCVDVKPISQEKICSERA [E20C] | 4.31
74 | YSEYPECCVDVKPISQEKIFSERA [E20F] | 3.56
75 | YSEYPECCVDVKPISQEKIDSERA [E20D] | 4.28
76 | YSEYPECCVDVKPISQEKIASERA [E20A] | 4.89
77 | YSEYPECCVDVKPMSQEKIESERA [I14M] | 4.65
78 | YSEYPECCVDVKPRSQEKIESERA [I14R] | 3.45
79 | YSEYPECCVDVKPWSQEKIESERA [I14W] | 3.9
80 | YSEYPECCVDVKPASQEKIESERA [I14A] | 4.58
81 | YSEYPECCVDVKPCSQEKIESERA [I14C] | 3.86
82 | YSEYPECCVDVKPGSQEKIESERA [I14G] | 3.83
83 | YSEYPECCVDVKPESQEKIESERA [I14E] | 4.5
84 | YSEYPECCVDVKPYSQEKIESERA [I14Y] | 3.84
85 | YSEYPECCVDVKPTSQEKIESERA [I14T] | 3.48
86 | YSEYPECCVDVKPKSQEKIESERA [I14K] | 4.43
87 | YSEYPECCVDVKPDSQEKIESERA [I14D] | 4.81
88 | YSEYPECCVDVKPHSQEKIESERA [I14H] | 4.29
89 | YSEYPECCVDVKPNSQEKIESERA [I14N] | 3.31
90 | YSEYPECCVDVKPFSQEKIESERA [I14F] | 4.18
91 | YSEYPECCVDVKPVSQEKIESERA [I14V] | 4.11
92 | YSEYPECCVDVKPSSQEKIESERA [I14S] | 4.4
93 | YSEYPECCVDVKPPSQEKIESERA [I14P] | 4.45
94 | YSEYPECCVDVKPQSQEKIESERA [I14Q] | 4.48
